Measurements from article PMC4933460, “Extracellular Regulation of Bone Morphogenetic Protein Activity by the Microfibril Component Fibrillin-1*” (The Journal of Biological Chemistry, 2016).
Values belong to the binder of their own block, whether it stands above or below them.

B3: BMP-7 prodomain, full-length PD (residues 30-292), E. coli (domain or fragment)
chain: not shown
notes: also called full-length BMP-7 PD; source: E. coli, purified by chelating chromatography; not shown: His6, C-terminal, kept

How the values were obtained:
[1] = biological target: T1, rF87, N-terminal fragment of fibrillin-1 (Ser19-Ile329) (UniProt P35555 19-329); experiment: SPR; PD variants immobilised at 500-800 RU, rF87 injected at 0-80 nM in HBS-EP (no urea); apparent KD; conditions: both partners purified
T1 construct: The sentence of the methods may also give rF87 the tandem C-terminal Strep-tag; it cannot be told; also called fibrillin-1 (rF87); N-terminal end of fibrillin-1
T1 sequence (P35555 19-329): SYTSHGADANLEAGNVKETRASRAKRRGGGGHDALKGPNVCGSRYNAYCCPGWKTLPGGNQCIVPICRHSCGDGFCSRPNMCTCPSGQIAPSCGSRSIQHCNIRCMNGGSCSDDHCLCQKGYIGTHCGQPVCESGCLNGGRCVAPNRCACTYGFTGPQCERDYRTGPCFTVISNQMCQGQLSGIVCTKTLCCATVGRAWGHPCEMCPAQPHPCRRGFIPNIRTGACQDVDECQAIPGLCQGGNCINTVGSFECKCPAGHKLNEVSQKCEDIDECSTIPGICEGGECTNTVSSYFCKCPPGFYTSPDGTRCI

[2] = biological target: B3; experiment: SPR; E. coli-derived full-length PD (30-292) immobilised, GF flown over in HBS-EP with 1 M urea; apparent KD = kd/ka; conditions: both partners purified
[3] = biological target: B3; experiment: SPR; 1,000 RU of BMP-7 PD immobilised, 0-80 nM GF injected in sodium acetate buffer pH 4.5, 0.15 M NaCl, 3 mM EDTA, 0.005% P20; apparent KD; conditions: both partners purified
[4] = biological target: B3; experiment: SPR; BIAcore 2000; BMP-7 GF covalently coupled to a CM5 chip (500 RU), PD variants flown over in HBS-EP pH 7.4 with 1 M urea; 1:1 model with mass transfer; apparent KD = kd/ka; conditions: both partners purified
[5] = biological target: T2, BMP-7 PD truncation variant 48-292 (UniProt P18075 48-292); experiment: as above; conditions: both partners purified
T2 construct: source: E. coli, purified by chelating chromatography; not shown: His6, C-terminal, kept

[6] = biological target: T3, BMP-7 PD truncation variant 55-292 (UniProt P18075 55-292); experiment: as above; conditions: both partners purified
T3 construct: source: E. coli, purified by chelating chromatography

[7] = biological target: T4, BMP-7 PD truncation variant 65-292 (UniProt P18075 65-292); experiment: as above; conditions: both partners purified
T4 construct: source: E. coli, purified by chelating chromatography

BMP-7 PD (30-292) H66A = biological target: T5, BMP-7 PD (30-292) H66A (UniProt P18075 30-292, H66A); experiment: ELISA; sandwich ELISA of reconstitution in solution: PD variants dialysed with the GF in TBS with 1 M urea overnight, captured by coated monoclonal anti-His6 antibody (C-terminal His6 of the PD), GF detected with an anti-GF antibody; conditions: both partners purified
T5 construct: source: E. coli, purified by chelating chromatography; not shown: His6, C-terminal, kept

BMP-7 PD (30-292) R67A = biological target: T6, BMP-7 PD (30-292) R67A (UniProt P18075 30-292, R67A); experiment: as above; conditions: both partners purified
T6 construct: source: E. coli, purified by chelating chromatography; not shown: His6, C-terminal, kept

BMP-7 PD (30-292) P68A = biological target: T7, BMP-7 PD (30-292) P68A (UniProt P18075 30-292, P68A); experiment: as above; conditions: both partners purified
T7 construct: source: E. coli, purified by chelating chromatography; not shown: His6, C-terminal, kept

[8] = biological target: the molecule itself; experiment: SPR; PD/PD interaction: 500-800 RU of full-length PD (30-292) or truncated variants (48-292, 55-292) immobilised, 0-320 nM PD variants injected in HBS-EP with 1 M urea; apparent KD
[9] = biological target: B3; experiment: as above; conditions: both partners purified
[10] = biological target: the molecule itself; experiment: velocity sedimentation in sucrose gradients; 10 μg BMP-7 complex dialysed against TBS with 1 M urea, 5-20% sucrose gradient, 28 fractions, Western blots for PD and GF

Kd [1]: 38 ± 3 nM
B1: BMP-7 PD variant 30-184 (domain or fragment)
chain: not shown
notes: BMP-7 prodomain, residues 30-184 of the BMP-7 precursor; source: E. coli, purified by chelating chromatography

Kd [2]: 31.5 ± 0.2 nM | Kd [3]: 20 ± 0.1 nM | Kd [4]: 19.4 nM | Kd [5]: 19 ± 1 nM | Kd [6]: 15 ± 3 nM | Kd [7]: 8 ± 1 nM | percent inhibition of complex formation (BMP-7 PD (30-292) H66A): 30% | percent inhibition of complex formation (BMP-7 PD (30-292) R67A): ~65% | percent inhibition of complex formation (BMP-7 PD (30-292) P68A): ~65%
B2: BMP-7 growth factor (GF) dimer (ligand, UniProt P18075 293-431, looked up)
chain: STGSKQRSQNRSKTPKNQEALRMANVAENSSSDQRQACKKHELYVSFRDLGWQDWIIAPEGYAAYYCEGECAFPLNSYMNATNHAIVQTLVHFINPETVPKPCCAPTQLNAISVLYFDDSSNVILKKYRNMVVRACGCH
notes: The same GF is a component of the BMP-7 complex m23; also called BMP-7 GF; mature growth factor; source: stably transfected HEK293 EBNA cells; separated from the purified BMP-7 complex in 8 M urea, 1 M NaCl by chelating chromatography (flow-through)

Binder: B3
Kd [1]: 32 ± 7 nM | Kd [8]: 3 ± 0.01 nM

Kd [1]: 27 ± 6 nM
B4: BMP-7 PD variant 30-217 (domain or fragment)
chain: not shown
notes: BMP-7 prodomain, residues 30-217 of the BMP-7 precursor; source: E. coli, purified by chelating chromatography

Kd [9]: 26.8 ± 3.1 nM
B5: BMP-7 PD variant 218-292 (domain or fragment, UniProt P18075 218-292, looked up)
chain: ASEEGWLVFDITATSNHWVVNPRHNLGLQLSVETLDGQSINPKLAGLIGRHGPQNKQPFMVAFFKATEVHFRSIR
notes: also called Ala218-Arg292; source: E. coli, purified by chelating chromatography

B6: BMP-7 prodomain of the HEK293 EBNA cell-expressed BMP-7 complex (domain or fragment)
chain: not shown
notes: Glycosylated (carbohydrate chains absent in the E. coli preparation); also called PD; BMP-7 PD; source: stably transfected HEK293 EBNA cells, purified as part of the BMP-7 complex (chelating chromatography, gel filtration)
stoichiometry N [10]: 2

Kd [9]: 39.1 ± 3.3 nM
B7: BMP-7 PD variant 241-292 (domain or fragment, UniProt P18075 241-292, looked up)
chain: HNLGLQLSVETLDGQSINPKLAGLIGRHGPQNKQPFMVAFFKATEVHFRSIR
notes: source: E. coli, purified by chelating chromatography

Kd [1]: 26 ± 4 nM
B8: BMP-7 PD truncation variant 74-292 (domain or fragment)
chain: not shown
notes: as for B7
